The target in one experiment is T1, human IL-17E (human, UniProt Q9H293 33-177).
T1 construct: also called hIL17-E; IL-25
T1 sequence (looked up): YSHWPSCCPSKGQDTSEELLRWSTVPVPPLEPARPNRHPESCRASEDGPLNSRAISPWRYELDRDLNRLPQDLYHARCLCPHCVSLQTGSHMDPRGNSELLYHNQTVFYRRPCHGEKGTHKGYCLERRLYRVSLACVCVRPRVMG
The experiment can be described thus: binding assay, method analogous to WO 2011/141823; column head prints hIL17-F, read as IL-17E by paragraph 30.

For experiment [1], the target named is T2, human IL-17A dimer (human, UniProt Q16552 24-155).
T2 construct: also called hIL17-A
T2 sequence (looked up): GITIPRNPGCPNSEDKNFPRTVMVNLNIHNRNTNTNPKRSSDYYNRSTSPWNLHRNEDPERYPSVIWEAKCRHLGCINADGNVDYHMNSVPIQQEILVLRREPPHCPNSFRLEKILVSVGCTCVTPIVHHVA
The experiment can be described thus: FP competition, competitor: tracer BCY2311. As to the method: (§1) Affinity determination by fluorescence polarization (FP) competition. […] Peptides were diluted to an appropriate concentration in assay buffer (PBS+0.01% Tween20, adjusted to pH7.4 using NaOH (1M)) with a maximum of 1% DMSO, then serially diluted 1 in 2 into assay buffer. […] The PHERAstar FS was set at 25° C. with 200 flashes per well and a positioning delay of 0.1 second, with each well measured at 5 to 10 minute intervals for 60 minutes. […] Data analysis was performed in Dotmatics where mP values were fit to the Cheng Prusoff equation in order to generate a Ki value.

The target in experiment [2] is T2, human IL-17A dimer. The experiment can be described thus: FP competition, competitor: tracer BCY2311; Ki Mean column, n=6. As to the method: as §1
The target in experiment [3] is T2, human IL-17A dimer. The experiment can be described thus: FP competition, competitor: tracer BCY2315. The procedure:
as §1

Experiment [4] concerns the target T2, human IL-17A dimer. Kind of experiment: FP competition, competitor: tracer BCY2315; Ki Mean column, n=2. As to the method: as §1
In experiment [5] the target is T2, human IL-17A dimer. Kind of experiment: binding assay, method analogous to WO 2011/141823.
Another experiment has as its target T3, mouse IL-17A dimer (mouse, UniProt Q62386 26-158).
T3 sequence (looked up): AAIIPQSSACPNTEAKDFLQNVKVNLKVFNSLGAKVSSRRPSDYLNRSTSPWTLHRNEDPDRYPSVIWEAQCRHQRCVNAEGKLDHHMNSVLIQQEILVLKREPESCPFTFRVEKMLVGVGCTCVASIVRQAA
The experiment can be described thus: binding assay, method analogous to WO 2011/141823.

Experiment [6] concerns the target T2, human IL-17A dimer. The experiment can be described thus: binding assay, method analogous to WO 2011/141823. This is another data set of the same source.
Experiment [7] deals with T2, human IL-17A dimer. Kind of experiment: binding assay, method analogous to WO 2011/141823; Mean column, n=2.

*1 amine or outer side, *2 acyl side, *3 side chain or, on linkers, in order; H or OH if unused. Bridges are numbered along the chain shown (N, C = ends). Where no end group is shown, it is not given here. TBMB = c1c(C[*:1])cc(C[*:3])cc1C[*:2]

The term Kd denotes the constant that tells how readily two partners part at equilibrium. A high value points to a looser complex. Molecule ACGYDYYCALYDICA (linker 2-8-14 via TBMB, Bicyclic peptide) [BCY2240 [A-(SEQ ID NO: 56)-A]] had a Kd with human IL-17E of 198 nM. The term Ki denotes a measure of affinity in units of concentration, obtained from inhibition or displacement. Regarding Ac-CYEAELCAFLGLC (linker 1-7-13 via TBMB, Bicyclic peptide) [BCY2240 [Ac-(SEQ ID NO: 36)]], the Ki with human IL-17A dimer [1] worked out at 26.9 nM; in the experiment with human IL-17A dimer [2], 25.7 nM. On to CYEDELCEFLALC (linker 1-7-13 via TBMB, Bicyclic peptide) [BCY2249], for which the Ki in the experiment with human IL-17A dimer [3] and with human IL-17A dimer [4] was 65 nM in each case. In the case of CPENELYCFLSSQQC (linker 1-8-15 via TBMB, Bicyclic peptide) [BCY2232], the Kd with human IL-17A dimer [5] was 398 nM.

B1: BCY2310 (peptide)
peptide: ACPQDLELCTFLFGDCAXXXXXXK
modifications: Ci, Cii and Ciii cyclised with TBMB; six sarcosines (written X) after the C-terminal Ala; fluorescein (Fl) on the C-terminal Lys
B1: the Kd was determined as 110 nM with mouse IL-17A dimer, 26.6 nM in the experiment with human IL-17A dimer [6] and 26.6 nM in the experiment with human IL-17A dimer [7].
